Legend:
[1] = biological target: optimized version of the ectodomain of human Fcγ receptor I (hFcγRI, CD64), residues Gln16 to Val289, hexa-histidine tag at the C-terminus (human) (UniProt P12314); assay: SPR; temperature dependence of KD, van't Hoff approximation; hFcγRI on the surface, Fc or IgG1 as analyte
[2] = biological target: optimized version of the ectodomain of human Fcγ receptor I (hFcγRI, CD64), residues Gln16 to Val289, hexa-histidine tag at the C-terminus (human) (UniProt P12314); assay: SPR; method #1: Biacore T200, hFcγRI captured by its C-terminal hexa-histidine on a Ni-NTA chip (~550 RU for Fc, ~220 RU for IgG), Fc or IgG1 as analyte, PBS with 0.005% Tween-20, 25 °C, 1:1 Langmuir global fit, KD from the rate constants

dH (van't Hoff) [1]: -112 kJ/mol
Kd [2]: 4.2 nM
koff [2]: 0.00011 s⁻¹
kon [2]: 27000 M⁻¹ s⁻¹
Substance: Fc fragment of the humanized IgG1 monoclonal antibody rituximab (from UniProt P01857 107-328) (domain or fragment)

From publication PMC4423232
